Laboratory results from US20260285984 (published 2026).

Target: PD-1 (human)
Assay: SPR (range 50-70 nM)

Chain of PD-1 (human) (chain, as listed by the source): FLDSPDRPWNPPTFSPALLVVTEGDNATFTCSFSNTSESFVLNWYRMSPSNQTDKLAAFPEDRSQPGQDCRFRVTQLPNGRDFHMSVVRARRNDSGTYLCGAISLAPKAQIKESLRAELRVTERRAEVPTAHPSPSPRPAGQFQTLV

Kd: ~60 nM
B1: PD-1 agonist VHH (antibody, V domains shown)
VH: EVQLVESGGALVQPGGSLRLSCAASGFTFSSYAMTWVRQAPGKGPEWVSAIASDGASTSYLDSVKGRFTVSRDNAKNTLYLQMNSLKPEDTAVYYCARGGYLTYDRYGQGTQVTVSS
